IntAct's records for PubMed 12163175

B1: Protein ROD1 (Saccharomyces cerevisiae), Q02805 (parent)
chain: MFSSSSRPSKEPLLFDIRLRNLDNDVLLIKGPPDEASSVLLSGTIVLSITEPIQIKSLALRLFGRLRLNIPTVLQTVHGPHKRYSKFERNIYSHFWDDFNIKSYFQNLYDNHNNGKITISSKSSTNLAALPKRKRALSTASLISSNGQTSASKNYHTLVKGNYEFPFSAIIPGSLVESVEGLPNAAVTYALEATIERPKQPDLICKKHLRVIRTLAIDAVELSETVSVDNSWPEKVDYTISIPTKAIAIGSSTMINILIVPILKGLKLGPVRISLVENSQYCGSYGGVINQERMVAKLKLKDPLKHVAQIKKKRSLNEAADEGVDTDTGEFQDKWEVRALLNIPASLTKCSQDCRILSNIKVRHKIKFTISLLNPDGHISELRAALPVQLFISPFVPVNVKTSDVIERTLKTFGPSYQVTSQHDNSFSSKNFVDDSEEDVIFQRSASALQLSSMPTIVSGSTLNINSTDAEATAVADTTMVTSLMVPPNYGNHVYDRVYGEVTNEDETSASASSSAVESQAIHNIQNLYISDSNNSNNPILAPNPQIKIEDDSLNNCDSRGDSVNNSNLNLVNSNLTISENWNNNSPSANRYNNIINAGLNSPSLTPSFAHLSRRNSYSRQTSSTSLKNDLELTDLSRVPSYDKAMKSDMIGEDLPPAYPEEELGVQENKKIELERPQILHHKSTSSLLPLPGSSKSSNNLKRSSSRTHLSHSPLPRNNSGSSVSLQQLARNNTDSSFNLNLSFTSAKSSTGSRHFPFNMTTSFTSNSSSKNNSHFDKTDSTSDANKPREEENYTSATHNRRSRSSSVRSNNSNSPLRQGTGSFANLMEMFTKRDRS
B2: Protein ROG3 (Saccharomyces cerevisiae), P43602 (parent)
chain: MGFSSGKSTKKKPLLFDIRLKNVDNDVILLKGPPNEAPSVLLSGCIVLSINEPMQIKSISLRLYGKIQIDVPLERPQDASSSSLSSSPPKIRKYNKVFYNYAWDNVNLKEYLSGLRGQSGLAGSSSSSNILGTRQRAQSTSSLKSLKGSSSPSSCTLDKGNYDFPFSAILPGSLPESVESLPNCFVTYSMESVIERSKNYSDLICRKNIRVLRTISPAAVELSETVCVDNSWPDKVDYSISVPNKAVAIGSATPINISIVPLSKGLKLGSIKVVLFENYQYCDPFPPVISENRQVTELNLEDPLNESSGEFNGNGCFVNNPFFQPDHSFQDKWEIDTILQIPNSLSNCVQDCDVRSNIKVRHKLKFFIILINPDGHKSELRASLPIQLFISPFVALSIKPLSSSNLYSLFSTTNQKDENSSQEEEEEYLFSRSASVTGLELLADMRSGGSVPTISDLMTPPNYEMHVYDRLYSGSFTRTAVETSGTCTPLGSECSTVEDQQQDLEDLRIRLTKIRNQRDNLGLPPSASSAAASRSLSPLLNVPAPEDGTERILPQSALGPNSGSVPGVHSNVSPVLLSRSPAPSVSAHEVLPVPSGLNYPETQNLNKVPSYGKAMKYDIIGEDLPPSYPCAIQNVQPRKPSRVHSRNSSTTLSSSIPTSFHSSSFMSSTASPISIINGSRSSSSGVSLNTLNELTSKTSNNPSSNSMKRSPTRRRATSLAGFMGGFLSKGNKR

Variants of: B1
Conditions: with rsp5_yeast RSP5, P39940
Target sequence in this assay (P39940 whole entry): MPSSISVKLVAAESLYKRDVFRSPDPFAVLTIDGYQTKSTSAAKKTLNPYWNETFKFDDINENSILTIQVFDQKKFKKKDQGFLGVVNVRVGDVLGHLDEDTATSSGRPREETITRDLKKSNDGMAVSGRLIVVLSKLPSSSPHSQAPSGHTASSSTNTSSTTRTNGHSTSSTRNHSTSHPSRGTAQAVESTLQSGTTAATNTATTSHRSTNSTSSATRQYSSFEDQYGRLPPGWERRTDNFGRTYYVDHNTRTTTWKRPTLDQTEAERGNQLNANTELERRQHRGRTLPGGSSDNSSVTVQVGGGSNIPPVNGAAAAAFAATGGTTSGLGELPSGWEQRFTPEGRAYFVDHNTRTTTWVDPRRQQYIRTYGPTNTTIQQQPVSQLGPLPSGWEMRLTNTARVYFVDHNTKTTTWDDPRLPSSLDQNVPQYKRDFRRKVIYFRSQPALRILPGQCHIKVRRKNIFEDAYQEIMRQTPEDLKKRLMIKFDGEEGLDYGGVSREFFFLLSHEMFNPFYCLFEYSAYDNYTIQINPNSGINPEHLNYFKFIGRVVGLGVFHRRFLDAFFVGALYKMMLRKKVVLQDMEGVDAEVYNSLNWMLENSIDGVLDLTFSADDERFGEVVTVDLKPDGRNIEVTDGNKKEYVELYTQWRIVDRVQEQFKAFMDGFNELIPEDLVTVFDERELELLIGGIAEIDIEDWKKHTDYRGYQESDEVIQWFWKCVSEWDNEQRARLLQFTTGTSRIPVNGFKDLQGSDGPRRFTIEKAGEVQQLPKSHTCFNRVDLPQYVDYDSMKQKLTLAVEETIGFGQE

| effect of a mutation on the interaction | Variant |
| --- | --- |
| disrupting interaction | P487Q;P488A |

Variants of: B2
Conditions: with rsp5_yeast RSP5, P39940
Target sequence in this assay (P39940 whole entry): as above

| effect of a mutation on the interaction | Variant |
| --- | --- |
| disrupting interaction | C487Q;T488A |
